The values below are quoted from earlier work in PMC3124085.

This data set concerns the target HIV-1 Gag p6 p6 (Human immunodeficiency virus 1) (UniProt O93182).

Chain of TSG101 UEV (Q99816 1-148): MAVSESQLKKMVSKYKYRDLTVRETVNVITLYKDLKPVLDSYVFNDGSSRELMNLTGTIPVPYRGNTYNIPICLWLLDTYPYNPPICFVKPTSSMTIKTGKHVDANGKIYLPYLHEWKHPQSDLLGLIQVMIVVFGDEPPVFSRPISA
Chain of HIV-1 Gag p6 p6 (Human immunodeficiency virus 1) (O93182 450-500): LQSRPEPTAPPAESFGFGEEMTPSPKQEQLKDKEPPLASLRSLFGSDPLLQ

With TSG101 UEV (from UniProt Q99816), the Kd was 27 µM.

The Kd is the constant that tells how readily two partners part at equilibrium.
